Data on eleven molecules can be found in US20150218285A1 (TORAY INDUSTRIES, published 2015).

Test [1] has as its target T1, CAPRIN-1 protein on the cell surface of human cancer cells (human, UniProt Q14444 2-709).
T1 construct: whole, on cells; endogenous protein of human cancer cell lines
T1 sequence (looked up): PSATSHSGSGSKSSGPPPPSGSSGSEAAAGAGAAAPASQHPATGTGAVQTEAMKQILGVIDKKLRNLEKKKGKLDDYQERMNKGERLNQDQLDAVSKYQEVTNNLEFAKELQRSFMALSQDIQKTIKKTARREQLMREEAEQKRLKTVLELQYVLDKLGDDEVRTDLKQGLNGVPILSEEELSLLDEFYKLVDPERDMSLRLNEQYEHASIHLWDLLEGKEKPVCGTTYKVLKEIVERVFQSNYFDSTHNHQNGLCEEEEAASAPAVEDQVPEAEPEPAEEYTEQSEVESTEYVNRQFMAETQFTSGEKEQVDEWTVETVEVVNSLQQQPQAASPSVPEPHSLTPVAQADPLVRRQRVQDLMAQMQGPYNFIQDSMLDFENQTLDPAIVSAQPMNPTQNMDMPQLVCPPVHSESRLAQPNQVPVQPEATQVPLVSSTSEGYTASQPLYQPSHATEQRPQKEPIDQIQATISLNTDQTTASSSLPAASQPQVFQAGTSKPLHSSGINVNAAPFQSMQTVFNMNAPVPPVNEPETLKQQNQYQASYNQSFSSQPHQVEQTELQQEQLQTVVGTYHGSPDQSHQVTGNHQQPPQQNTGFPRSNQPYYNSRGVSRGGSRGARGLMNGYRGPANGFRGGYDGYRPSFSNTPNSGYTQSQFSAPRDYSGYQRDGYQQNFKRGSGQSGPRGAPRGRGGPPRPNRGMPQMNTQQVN
The test can be described thus: flow cytometry on Hep3B, HepG2, SK-Hep-1, SW480; culture supernatant; vs isotype control. The procedure: Subsequently, four liver cancer cell lines (Hep3 GB, HepG2, SK-Hep-1, and SW480), which were confirmed to express a CAPRIN-1 gene, were investigated for whether or not a CAPRIN-1 protein is expressed on the surfaces of these cells. 1×10⁶ cells of each cell line were centrifuged with a 1.5-mL micro centrifugation tube. To the cells was added the culture supernatant (100 μL) containing any of mouse monoclonal antibodies #1 to #22 against a CAPRIN-1 protein reacting to cancer cell surface produced in Example 4 and mouse-chicken chimeric antibodies #1 to #3 against a CAPRIN-1 protein produced in the above (2), followed by being left to stand on ice for 1 hour. After washing with PBS, the cells were suspended in a FITC-labeled goat anti-mouse IgG antibody (manufactured by Invitrogen Corporation) diluted by 500-fold with PBS containing 0.1% FBS, followed by being left to stand on ice for 1 hour. After washing with PBS, the fluorescence intensity was measured with FACS Calibur available from Becton, Dickinson and Company. Separately, as a control, the same procedure as in above was performed using an iso-type control antibody, instead of the culture supernatants containing the mouse monoclonal antibodies #1 to #22 against a CAPRIN-1 protein and the mouse-chicken chimeric antibodies #1 to #3. As a result, the fluorescence intensity in the cells to which any of the monoclonal antibodies #1 to #22 and the mouse-chicken chimeric antibodies #1 to #3 was added was 20% or more higher than that in the control in every case. Specifically, in the case of using mouse-chicken chimeric antibody #1, the fluorescence intensity was enhanced by 200% or more in both SK-Hep-1 and Hep3B. […] The rate of increase in the fluorescence intensity is represented by the rate of increase in the mean fluorescence intensity (MFI value) in each cell and is calculated by the following calculation formula: […]
(In flow cytometry, cells or beads pass a laser one at a time.)

Test [2] has as its target T1, CAPRIN-1 protein on the cell surface of …. The test can be described thus: cell-based or functional assay.
Test [3] has the same target. The test is described as follows: flow cytometry on Hep3B, HepG2, SK-Hep-1, SW480; antibody 20 ug/mL; control: secondary antibody only. As to the method:
Four human liver cancer cell lines (Hep3 GB, HepG2, SK-Hep-1, and SW480) were investigated whether or not a CAPRIN-1 protein is expressed on the cell surface using mouse anti-CAPRIN-1 monoclonal antibodies #30 to #36. 5×10⁵ cells of each of the liver cancer cell lines were centrifuged with a 1.5-mL micro centrifugation tube. The cells were subjected to reaction with each of mouse anti-CAPRIN-1 antibodies #30 to #36 at a final concentration of 20 μg/mL, followed by being left to stand on ice for 1 hour. After washing with PBS, the cells were reacted with a 100-fold diluted Alexa488-labeled goat anti-mouse IgG antibody (manufactured by Invitrogen Corporation), followed by being left to stand on ice for […]. After washing with PBS, the fluorescence intensity was measured with FACS Calibur available from Becton, Dickinson and Company. Separately, the cells were subjected to reaction with only the secondary antibody as a negative control.

Test [4] deals with T2, peptide set forth in SEQ ID NO: 267 (human).
T2 peptide: QQPQAASPSVPE
The test can be described thus: ELISA on immobilised synthetic CAPRIN-1 peptides, culture supernatant. A general note: In an ELISA, binding on a coated surface is turned into a signal by an enzyme label.

Test [5] has as its target T3, polypeptide set forth in SEQ ID NO: 266 (human).
T3 construct: identified by ELISA on synthetic 12-16 aa peptides of human CAPRIN-1
T3 peptide: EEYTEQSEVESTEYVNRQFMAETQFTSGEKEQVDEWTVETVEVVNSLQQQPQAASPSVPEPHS
The test is described as above.

Test [6] concerns the target T4, polypeptide set forth in SEQ ID NO: 430 (human).
T4 peptide: ATQVPLVSSTSEGYTA
The test is described as follows: reactivity with the epitope peptide, method not detailed.

For test [7], the target named is T5, human CAPRIN-1 recombinant protein (human, UniProt Q14444 1-709).
T5 construct: also called CAPRIN-1 protein; human CAPRIN-1 protein
T5 sequence: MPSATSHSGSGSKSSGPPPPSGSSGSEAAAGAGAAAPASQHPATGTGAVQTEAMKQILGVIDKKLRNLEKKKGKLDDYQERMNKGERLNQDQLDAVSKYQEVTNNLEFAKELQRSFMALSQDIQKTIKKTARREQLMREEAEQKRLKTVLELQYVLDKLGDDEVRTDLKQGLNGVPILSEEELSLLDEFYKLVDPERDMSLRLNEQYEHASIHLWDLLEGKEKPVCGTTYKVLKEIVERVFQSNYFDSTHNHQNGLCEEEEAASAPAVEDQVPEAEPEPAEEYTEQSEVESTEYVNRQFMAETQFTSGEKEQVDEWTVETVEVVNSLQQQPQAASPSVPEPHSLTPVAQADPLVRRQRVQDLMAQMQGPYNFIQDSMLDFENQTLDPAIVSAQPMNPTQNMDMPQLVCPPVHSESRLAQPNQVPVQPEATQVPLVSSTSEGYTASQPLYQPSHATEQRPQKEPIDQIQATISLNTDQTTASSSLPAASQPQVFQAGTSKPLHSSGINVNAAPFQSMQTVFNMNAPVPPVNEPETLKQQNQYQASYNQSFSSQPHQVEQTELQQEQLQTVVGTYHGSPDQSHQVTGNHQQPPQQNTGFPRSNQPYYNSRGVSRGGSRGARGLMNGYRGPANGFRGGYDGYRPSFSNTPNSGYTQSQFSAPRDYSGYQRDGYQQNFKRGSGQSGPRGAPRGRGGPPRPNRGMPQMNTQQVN
The test is described as follows: reactivity with CAPRIN-1 protein, method not detailed.

For test [8], the target named is T1, CAPRIN-1 protein on the cell surface of …. The test can be described thus: reactivity with liver cancer cell lines, method not detailed.

Substitutions are numbered along the chain they refer to. Where only a bound is given, the exact number is not on record here.

B1: mouse monoclonal antibody #3 (antibody, V domains shown)
VH: GGGLVKPGGSLKLSCAASGFTFSSYGMSWVRQTPEKRLEWVATISSGGSYTYYPDSVKGRFTISRDNAKNTLYLQMSSLRSEDTAMYYCASLASYYFDYWGQGTTLTVSS
VL: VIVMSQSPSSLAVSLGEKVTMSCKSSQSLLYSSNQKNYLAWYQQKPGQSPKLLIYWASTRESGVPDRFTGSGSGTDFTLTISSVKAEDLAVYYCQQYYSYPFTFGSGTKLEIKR
In the case of B1, in test [1], the “rate of increase in mean fluorescence intensity” value (“rate of increase” for short) was at least 20%. In addition, the “cytotoxicity (ADCC, 51Cr release) on SK-Hep-1” value (shortened to “cytotoxicity”) in test [2] is at least 12%.

B2: mouse anti-CAPRIN-1 antibody #31 (antibody, V domains shown)
VH: GPELVKPGASVKISCKASGYSFTGYFMNWVMQSHGKSLEWIGRINPYNGDTFYNQKFKGKATLTVDKSSSTAHMELRSLASEDSAVYYCARRIHYYYGSSYYAMDYWGQEPHH
VL: DVQITQSPSYLAASPGETITINCRASKSISKYLAWYQEKPGKTNKLLIYSGSTLQSGIPSRFSGSGSGTDFTLTISSLEPEDFAMYYCQQHNEYPWTFGGGTKLEIKR
notes: mouse hybridoma antibody; also called mouse anti-CAPRIN-1 monoclonal antibody #31
As for B2, in test [3], the “increase in fluorescence intensity over the control” value was at least 35%.

B3: mouse monoclonal antibody #18 (antibody, V domains shown)
VH: LQESGAELARPGASVKLSCKASGYTFTSYWMQWVKQRPGQGLEWIGAIYPGDGDTRYTQKFKGKATLTADKSSSTAYMQLSSLASEDSAVYYCARGEYGNYFAYWGQGTTVTVSS
VL: TSDASLGERVTITCKASQDINSYLSWFQQKPGKSPKTLIYRANRLVDGVPSRFSGSGSGQDYSLTISSLEYEDMGIYYCLQYDEFPLTFGGGTKLEIKQ
notes: mouse hybridoma antibody
As for B3, the “rate of increase” value in test [1] was at least 20%. Further, the “cytotoxicity” value in test [2] is at least 12%.

B4: human-chicken chimeric antibody #1 (antibody, human IgG1, kappa, V domains shown)
VH: AVTLDESGGGLQMSRGGLSLVCKASGFDFSSYQMNWIRQAPGKGLEFVAAINKFGNSTGHGAAVKGRVTISRDNGQSTVRLQLNNLRAEDTAIYFCTKHAYGYCGSGTWCAAGEIDAWGHGTEVIVSS
VL: QAASTQPSSVSANPGETVEITCSGGGSYSYGWFQQKSPGSAPVTVIYYNNKRPSDIPSRFSGSKSGSTGTLTITGVQADDEAVYYCGSGDSTDTAVFGAGTTLTVLG
notes: chicken variable domains with human IgG1 H-chain and L-chain constant domains; also called human-chicken chimeric monoclonal antibody #1
B4: the binding result in test [4] and in test [5] was “binds” each time.

B5: mouse monoclonal antibody #12 (antibody, V domains shown)
VH: EVQLHQFGAELVKPGASVKISCKASGYTFTDYNMDWVKQSHGKSLEWIGDINPNYDSTSYNQKFKGKATLTVDKSSSTAYMELRSLTSEDTAVYYCARSRSYDYEGFAYWGQGTLVTVSA
VL: DIQMTQSPASLSASVGETVTITCRASGNIHNYLAWYQQKQGKSPQLLVYNAKTLADGVPSRFSGSGSGTQYSLKINSLQPEDFGSYYCQHFWSTLTFGAGTKLELKR
notes: mouse hybridoma antibody
Consider B5, for which, in test [1], the “rate of increase” value is at least 20%. The “cytotoxicity” value in test [2] is at least 12%.

B6: mouse monoclonal antibody #15 (antibody, V domains shown)
VH: B5 VH
VL: SGDRVSLSCRASQSISNYLHWYQQKSHESPRLLIKYASQSISGIPSRFSGSGSGTDFTLSINSVETEDFGMYFCQQSNSWPYTFGAGTKLEIKQ
notes: mouse hybridoma antibody
Turning to B6, the “rate of increase” value in test [1] is at least 20%. In test [2], the “cytotoxicity” value was at least 12%.

B7: mouse monoclonal antibody #14 (antibody, V domains shown)
VH: B5 VH
VL: DIQLTQSPASLSASVGETVTITCRASGNIHNYLAWYQQKQGKSPQLLVYNAKTLADGVPSRFSGSGSGTQYSLKINSLQPEDFGSYYCQHFWSTLTFGGGTKLEIK
notes: mouse hybridoma antibody
Regarding B7, the “rate of increase” value in test [1] was at least 20%. Besides, the “cytotoxicity” value in test [2] is at least 12%.

B8: mouse monoclonal antibody #4 (antibody, V domains shown)
VH: GAELVRSGASVKMSCKASGYSFTDYNMYWVKQTPGQGLEWIGYIYPGNGGTNYNQKFKGKATLTADTSSSTAYMQISSLTSEDSAVYFCARDYDDGGYAMDYWGQGTTVTVSS
VL: DIQMTQSPASLSASVGETVTITCRASGNIHNYLTWYQQKQGKSPQLLVYNAKTLADGVPSRFSGSGSGTQYSLKINRLQPEDFGSYYCQHFWNIPWTFGGGTKLNSR
notes: mouse hybridoma antibody
With B8, the “rate of increase” value in test [1] was at least 20%. The binding result in test [4] and in test [5] was “binds” in each case. Further, in test [2], the “cytotoxicity” value was at least 12%.

B9: humanized anti-CAPRIN-1 antibody #2 (antibody, human IgG1, V domains shown)
VH: EVQLVESGGGLVQPGGSLRLSCAASGFSFSGSYYMSWVRQAPGKGLEWIAYIYIGDGVTAYANWAKGRFTISKDNSKNTLYLQMNSLRAEDTAVYFCARGNKLWGPGTLVTVSS
VL: DIQMTQSPSSLSASVGDRVTIKCQASQSISSYLAWYQQKPGKAPKRLIYDASNLDSGVPSRFSGSGSGTDFTFTISSLQPEDIATYYCQCTAVSSATIYGNAFGGGTKVEIK
Consider B9, for which the binding result in test [6], in test [7] and in test [8] was “binds” in each case.

B10: humanized anti-CAPRIN-1 antibody #3 (antibody, human IgG1, V domains shown)
VH: B9 VH with K73R, F96Y
VL: B9 VL
Consider B10, for which the binding result in test [6], in test [7] and in test [8] was “binds” in each case.

B11: humanized anti-CAPRIN-1 antibody #1 (antibody, human IgG1, V domains shown)
VH: B9 VH with E1Q, Q13K, K73R, S76A, T79S, K102R, P106Q
VL: B9 VL with S14A, A43P
Take B11: the binding result in test [6], in test [7] and in test [8] was “binds” in each case.
